Where “and” joins values, the source holds several entries; their conditions need not be identical. Identical values can stand only once.
B1: Tryptophan synthase alpha chain, P0A877 (parent)
chain: MERYESLFAQLKERKEGAFVPFVTLGDPGIEQSLKIIDTLIEAGADALELGIPFSDPLADGPTIQNATLRAFAAGVTPAQCFEMLALIRQKHPTIPIGLLMYANLVFNKGIDEFYAQCEKVGVDSVLVADVPVEESAPFRQAALRHNVAPIFICPPNADDDLLRQIASYGRGYTYLLSRAGVTGAENRAALPLNHLVAKLKEYNAAPPLQGFGISAPDQVKAAIDAGAAGAISGSAIVKIIEQHINEPEKMLAALKVFVQPMKAATRS

Variants of: B1
Conditions: Escherichia coli (strain K12); pH 7.8; 23 °C; Urea; Absorbance; Potassium phosphate 10 mM; transition: 3; reversible: yes; structure 1WQ5; whole UniProt chain shown

With F139W the “ddG of mutation (higher = less stable)” value was 0.7 kcal/mol and 0.6 kcal/mol, the denaturant m value was 2.3 kcal/mol/M and 1.2 kcal/mol/M and the “denaturant midpoint (higher = more stable)” value (“denaturant midpoint” for short) was 2.46 M and 3.8 M. For the same variant, the unfolding free energy was 5.7 kcal/mol and 4.6 kcal/mol.

In the case of F258W, the “ddG of mutation (higher = less stable)” value is reported as 1.4 kcal/mol and 1 kcal/mol, the denaturant m value is reported as 1.9 kcal/mol/M and 1.2 kcal/mol/M and the “denaturant midpoint” value is reported as 2.68 M and 3.58 M. For the same variant, the unfolding free energy was 5 kcal/mol and 4.2 kcal/mol.

With F139W F258W the “ddG of mutation (higher = less stable)” value was 0.8 kcal/mol, the denaturant m value was 2.1 kcal/mol/M and 1.3 kcal/mol/M and the “denaturant midpoint” value was 2.67 M and 3.51 M. The unfolding free energy was 5.6 kcal/mol and 4.4 kcal/mol.

Source: FireProtDB (doi:10.1074/jbc.270.30.17712)
